According to patent US20240100176A1 (Eli Lilly, published 2024):

Tests used:
Experiment in all cases: capture ELISA: Ab1 on anti-human IgG Fc, His-tagged receptor at 1 µg/mL, anti-His HRP
[1] = target: T1, hexahistidine tagged human IL-4Rα ECD E94R (human, UniProt P24394 26-232)
T1 construct: not shown: hexahistidine tag
Excerpt: (§1) Example 2d. […] Briefly, thirty surface amino acid residue substitutions were introduced individually into hexahistidine tagged human IL-4Rα extra cellular domain (ECD) as follows: K2D, E6R, K22D, P26R, T31R, F41A, L42G, L43G, E45R, E52R, G56R, D66R, A71R, Q82G, K87D, E94R, H107A, D108R, P124R, D125R, D143R, R148D, L155R, R160D, S164R, S168R, Q181R, P192R, K195D, or H197G. Each mutant protein having a single amino acid residue substitution as described above was transiently expressed in CHO cells and purified using standard immobilized metal affinity chromatography techniques. […] The plates were then washed 3 times with PBST and the exemplified human IL-4Rα antibody was added to the wells at a final concentration of 1 μg/mL in PBS-casein and incubated for 1 hour at room temperature. The plates were washed 3 times with PBST, the IL-4Rα mutant proteins were serially diluted 5-fold from 1 μg/mL for 3 points. in PBS-casein and added to the plate at 50 μL/well and incubated for 1 hour at room temperature. The plates were washed 3 times with PBST and a 1000-fold dilution of anti-histidine tag antibody HRP conjugate (R&D Systems, Cat. #MAB050H) in PBS-casein was added and incubated for 45 minutes at room temperature. The plates were washed 3 times, TMB substrate (Pierce, Cat. #34028) was added per manufacturer instructions, the reaction was quenched with H₂SO₄, and absorbance was read at 450 nm on an ELISA plate reader.

[2] = target: T2, hexahistidine tagged human IL-4Rα ECD R160D (human, UniProt P24394 26-232)
T2 construct: not shown: hexahistidine tag
T2 sequence (P24394 26-232 R185D): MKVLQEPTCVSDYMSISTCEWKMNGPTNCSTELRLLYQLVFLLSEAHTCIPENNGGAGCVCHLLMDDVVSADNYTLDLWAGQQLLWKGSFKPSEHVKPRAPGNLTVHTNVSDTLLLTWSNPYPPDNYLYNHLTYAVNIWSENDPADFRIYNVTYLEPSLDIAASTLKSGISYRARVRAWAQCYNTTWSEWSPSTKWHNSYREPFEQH
Excerpt: as §1

[3] = target: T3, hexahistidine tagged human IL-4Rα ECD K22D (human, UniProt P24394 26-232)
T3 construct: not shown: hexahistidine tag
T3 sequence (P24394 26-232 K47D): as the sequence (P24394 26-232 R185D) above, with K22D, D160R counted along it
Excerpt: as §1

[4] = target: T4, hexahistidine tagged human IL-4Rα ECD H107A (human, UniProt P24394 26-232)
T4 construct: not shown: hexahistidine tag
T4 sequence (P24394 26-232 H132A): as the sequence (P24394 26-232 R185D) above, with H107A, D160R counted along it
Excerpt: as §1

[5] = target: T5, hexahistidine tagged human IL-4Rα ECD S164R (human, UniProt P24394 26-232)
T5 construct: not shown: hexahistidine tag
Excerpt: as §1

[6] = target: T6, hexahistidine tagged human IL-4Rα ECD Q181R (human, UniProt P24394 26-232)
T6 construct: not shown: hexahistidine tag
T6 sequence (P24394 26-232 Q206R): as the sequence (P24394 26-232 R185D) above, with D160R, Q181R counted along it
Excerpt: as §1

[7] = target: T7, hexahistidine tagged human IL-4Rα ECD H197G (human, UniProt P24394 26-232)
T7 construct: not shown: hexahistidine tag
Excerpt: as §1

[8] = target: T8, hexahistidine tagged human IL-4Rα ECD T108R (human, UniProt P24394 26-232)
T8 construct: also called D108R; not shown: hexahistidine tag
Excerpt: as §1

[9] = target: T9, hexahistidine tagged human IL-4Rα ECD E52R (human, UniProt P24394 26-232)
T9 construct: not shown: hexahistidine tag
T9 sequence (P24394 26-232 E77R): as the sequence (P24394 26-232 R185D) above, with E52R, D160R counted along it
Excerpt: as §1

[10] = target: T10, hexahistidine tagged human IL-4Rα ECD R148D (human, UniProt P24394 26-232)
T10 construct: not shown: hexahistidine tag
T10 sequence (P24394 26-232 R173D): as the sequence (P24394 26-232 R185D) above, with R148D, D160R counted along it
Excerpt: as §1

[11] = target: T11, hexahistidine tagged human IL-4Rα ECD P124R (human, UniProt P24394 26-232)
T11 construct: not shown: hexahistidine tag
T11 sequence (P24394 26-232 P149R): as the sequence (P24394 26-232 R185D) above, with P124R, D160R counted along it
Excerpt: as §1

[12] = target: T12, hexahistidine tagged human IL-4Rα ECD G56R (human, UniProt P24394 26-232)
T12 construct: not shown: hexahistidine tag
Excerpt: as §1

[13] = target: T13, hexahistidine tagged human IL-4Rα ECD P192R (human, UniProt P24394 26-232)
T13 construct: not shown: hexahistidine tag
Excerpt: as §1

[14] = target: T14, hexahistidine tagged human IL-4Rα ECD K2D (human, UniProt P24394 26-232)
T14 construct: not shown: hexahistidine tag
T14 sequence (P24394 other isoform, or with tags, fused parts or gaps): as the sequence (P24394 26-232 R185D) above, with K2D, D160R counted along it
Excerpt: as §1

[15] = target: T15, hexahistidine tagged human IL-4Rα ECD L43G (human, UniProt P24394 26-232)
T15 construct: not shown: hexahistidine tag
T15 sequence (P24394 26-232 L68G): as the sequence (P24394 26-232 R185D) above, with L43G, D160R counted along it
Excerpt: as §1

[16] = target: T16, hexahistidine tagged human IL-4Rα ECD D125R (human, UniProt P24394 26-232)
T16 construct: not shown: hexahistidine tag
T16 sequence (P24394 26-232 D150R): as the sequence (P24394 26-232 R185D) above, with D125R, D160R counted along it
Excerpt: as §1

[17] = target: T17, hexahistidine tagged human IL-4Rα ECD A71R (human, UniProt P24394 26-232)
T17 construct: not shown: hexahistidine tag
T17 sequence (P24394 26-232 A96R): as the sequence (P24394 26-232 R185D) above, with A71R, D160R counted along it
Excerpt: as §1

[18] = target: T18, hexahistidine tagged human IL-4Rα ECD L42G (human, UniProt P24394 26-232)
T18 construct: not shown: hexahistidine tag
T18 sequence (P24394 26-232 L67G): as the sequence (P24394 26-232 R185D) above, with L42G, D160R counted along it
Excerpt: as §1

T1 sequence (P24394 26-232 E119R): as the sequence (P24394 26-232 R185D) above, with E94R, D160R counted along it

ELISA (OD450) [1]: 1.73 OD450 | ELISA (OD450) [2]: 1.91 OD450 | ELISA (OD450) [3]: 1.67 OD450 | ELISA (OD450) [4]: 1.89 OD450 | ELISA (OD450) [5]: 1.92 OD450 | ELISA (OD450) [6]: 1.91 OD450 | ELISA (OD450) [7]: 1.85 OD450 | ELISA (OD450) [8]: 1.88 OD450 | ELISA (OD450) [9]: 1.73 OD450 | ELISA (OD450) [10]: 1.76 OD450 | ELISA (OD450) [11]: 1.84 OD450 | ELISA (OD450) [12]: 1.73 OD450 | ELISA (OD450) [13]: 1.94 OD450 | ELISA (OD450) [14]: 2.05 OD450 | ELISA (OD450) [15]: 1.7 OD450 | ELISA (OD450) [16]: 1.79 OD450 | ELISA (OD450) [17]: 1.7 OD450 | ELISA (OD450) [18]: 1.71 OD450
B1: anti-human IL-4Rα antibody Ab1 (antibody, human IgG4 S228P, kappa)
heavy: QVQLVESGGGLVQPGGSLRLSCVASGFTFSHSSMNWVRQAPGKGLEWVSYISRATGAVYYADSVKGRFTISRDNAKNSLYLQMNSLRDEDTAVYYCAREPVFDYWGQGTLVTVSSASTKGPCVFPLAPCSRSTSESTAALGCLVKDYFPEPVTVSWNSGALTSGVHTFPAVLQSSGLYSLSSVVTVPSSSLGTKTYTCNVDHKPSNTKVDKRVESKYGPPCPPCPAPEFLGGPSVFLFPPKPKDTLMISRTPEVTCVVVDVSQEDPEVKFNWYVDGVEVHNAKTKPREEQFNSTYRVVSVLTVLHQDWLNGKEYKCKVSNKGLPSSIEKTISKAKGQPREPQVYTLPPSREEMTKNQVSLTCLVKGFYPSDICVEWESNGQPENNYKTTPPVLDSDGSFFLYSRLTVDKSRWQQGNVFSCSVMHEALHNHYTQKSLSLSLG
light: DIQMTQSPSAMSASVGDRVTITCRASQDISNYLAWFQQKPGKVPTRLIYAASSLQSGVPSRFSGSGSGTEFTLTISSLQPEDFATYYCLQWSSYPRTFGQGTKVEIKRTVAAPSVFIFPPSDEQLKSGTASVVCLLNNFYPREAKVQWKVDNALQSGNSQESVTEQDSKDSTYSLSSTLTLSKADYEKHKVYACEVTHQGLSSPVTKSFNRGEC
notes: human kappa light chain; also called anti-human IL-4Rα Ab1; unconjugated Ab1
